PMC5864917 (2018)

T1: SERA5 SE36 (Plasmodium falciparum, UniProt Q9TY95)
T1 chain: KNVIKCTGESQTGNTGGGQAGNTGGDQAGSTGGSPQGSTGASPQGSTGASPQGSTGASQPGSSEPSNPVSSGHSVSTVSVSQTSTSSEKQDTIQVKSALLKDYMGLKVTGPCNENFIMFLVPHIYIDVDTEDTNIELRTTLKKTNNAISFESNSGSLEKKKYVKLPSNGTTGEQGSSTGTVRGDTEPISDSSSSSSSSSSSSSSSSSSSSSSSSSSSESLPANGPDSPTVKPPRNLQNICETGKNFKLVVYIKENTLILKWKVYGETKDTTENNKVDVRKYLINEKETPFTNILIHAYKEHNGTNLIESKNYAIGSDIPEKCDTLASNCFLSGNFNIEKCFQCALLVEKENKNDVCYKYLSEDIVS


Tests used:
[1] = target: biotinylated SE36 (Plasmodium falciparum (Honduras-1)); assay: SPR; Biacore T200, chip SA; biotinylated SE36 immobilized at 200 RU via streptavidin; purified VTN 1.25-20 μg/mL (~17.9-285.7 nM) flowed at 20 μL/min, 25 °C, PBS with 0.05% Tween 20; fitted to 1:1 binding and bivalent analyte models
[2] = target: T1, SERA5 SE36; assay: SPR

Molecule | KD1 (bivalent analyte model, first interaction) [1] [nM] | ka1 (bivalent analyte model, first interaction) [1] [M⁻¹ s⁻¹] | kd1 (bivalent analyte model, first interaction) [1] [s⁻¹] | Kd [2] [nM]
Vitronectin (VTN), human (natural protein) | 3.7 | 550000 | 0.002 | 
Vitronectin (protein) ATWLSLFSSEESNLGANNYDDYRMDWLVPATCEPIQSVFFFSGDKYYRVNLRTRRVDTVDPPYPRSIAQYWLGCPAPGHL |  |  |  | 3.7
